In article PMC11931166, “Heterologous expression and characterization of xylose-tolerant GH 43 family β-xylosidase/α-L-arabinofuranosidase from Limosilactobacillus fermentum and its application in xylan degradation” (Frontiers in Bioengineering and Biotechnology, 2025):

How the values were obtained:
[1] = target: T1, LfXyl43 (GH 43 β-xylosidase/α-L-arabinofuranosidase) (Limosilactobacillus fermentum, UniProt A0ABF7R1E2); experiment: specific activity of purified enzyme at […] substrate; format: biochemical
T1 construct: gene LAF_0405; recombinant rLfXyl43, 551 residues, C-terminal 6× histidine tag
T1 sequence (A0ABF7R1E2 1-551): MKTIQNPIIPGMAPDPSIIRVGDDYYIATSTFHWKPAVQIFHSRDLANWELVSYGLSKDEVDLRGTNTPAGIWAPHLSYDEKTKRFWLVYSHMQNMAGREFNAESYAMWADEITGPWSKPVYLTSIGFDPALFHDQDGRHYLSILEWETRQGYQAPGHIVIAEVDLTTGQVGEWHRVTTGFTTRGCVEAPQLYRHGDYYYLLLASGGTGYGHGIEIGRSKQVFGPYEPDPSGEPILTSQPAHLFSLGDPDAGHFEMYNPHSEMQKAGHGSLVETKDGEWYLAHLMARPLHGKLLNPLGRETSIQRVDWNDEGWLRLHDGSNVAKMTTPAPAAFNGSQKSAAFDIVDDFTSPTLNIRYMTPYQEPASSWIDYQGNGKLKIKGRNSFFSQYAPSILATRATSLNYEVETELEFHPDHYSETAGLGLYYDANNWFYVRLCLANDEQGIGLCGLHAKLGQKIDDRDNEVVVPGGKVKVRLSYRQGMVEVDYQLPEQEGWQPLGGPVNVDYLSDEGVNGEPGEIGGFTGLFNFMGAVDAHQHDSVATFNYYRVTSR

[2] = substrate: OC1OC[C@@H](O[C@@H]2OC[C@@H](O)[C@H](O)[C@H]2O)[C@H](O)[C@H]1O; experiment: Michaelis-Menten kinetics, DNSA reducing sugar assay (Km); format: biochemical, Limosilactobacillus fermentum; conditions: catalytic pocket, subsites −[…] and +[…] (predicted)
[3] = substrate: OC1OC[C@@H](O[C@@H]2OC[C@@H](O[C@@H]3OC[C@@H](O)[C@H](O)[C@H]3O)[C@H](O)[C@H]2O)[C@H](O)[C@H]1O; experiment: as above; format: biochemical, Limosilactobacillus fermentum
[4] = substrate: OC1OC[C@@H](O[C@@H]2OC[C@@H](O[C@@H]3OC[C@@H](O[C@@H]4OC[C@@H](O)[C@H](O)[C@H]4O)[C@H](O)[C@H]3O)[C@H](O)[C@H]2O)[C@H](O)[C@H]1O; experiment: as above; format: biochemical, Limosilactobacillus fermentum; conditions: catalytic pocket, Asp15 and Glu188 at the −[…] subsite (predicted)
purified protein [5] = substrate: O=[N+]([O-])c1ccc(O[C@@H]2OC[C@@H](O)[C@H](O)[C@H]2O)cc1; experiment: purified protein; format: biochemical, Limosilactobacillus fermentum; conditions: catalytic pocket, Asp15, Asp129 and Glu188 (predicted)
purified protein [6] = substrate: O=[N+]([O-])c1ccc(O[C@@H]2O[C@@H](CO)[C@H](O)[C@H]2O)cc1; experiment: purified protein; format: biochemical, Limosilactobacillus fermentum

| Molecule | Specific activity, U/mg [1] | Km [2] | Vmax [2] | kcat [2] | kcat/Km [2] | Km [3] | Vmax [3] | kcat [3] | kcat/Km [3] | Km [4] | Vmax [4] | kcat [4] | kcat/Km [4] | Km (purified protein [5]) | Vmax (purified protein [5]) | kcat (purified protein [5]) | Km (purified protein [6]) | Vmax (purified protein [6]) | kcat (purified protein [6]) | kcat/Km (purified protein [6]) |
| --- | --- | --- | --- | --- | --- | --- | --- | --- | --- | --- | --- | --- | --- | --- | --- | --- | --- | --- | --- | --- |
| O=[N+]([O-])c1ccccc1O[C@@H]1OC[C@@H](O)[C@H](O)[C@H]1O [oNPX, o-nitrophenyl-β-D-xylopyranoside] | 3.8 ± 0.1 U/mg | – | – | – | – | – | – | – | – | – | – | – | – | – | – | – | – | – | – | – |
| LfXyl43 (GH 43 β-xylosidase/α-L-arabinofuranosidase) (Limosilactobacillus fermentum IFO 3956) (protein, recombinant rLfXyl43, 551 residues, C-terminal 6× histidine tag) MKTIQNPIIPGMAPDPSIIRVGDDYYIATSTFHWKPAVQIFHSRDLANWELVSYGLSKDEVDLRGTNTPAGIWAPHLSYDEKTKRFWLVYSHMQNMAGREFNAESYAMWADEITGPWSKPVYLTSIGFDPALFHDQDGRHYLSILEWETRQGYQAPGHIVIAEVDLTTGQVGEWHRVTTGFTTRGCVEAPQLYRHGDYYYLLLASGGTGYGHGIEIGRSKQVFGPYEPDPSGEPILTSQPAHLFSLGDPDAGHFEMYNPHSEMQKAGHGSLVETKDGEWYLAHLMARPLHGKLLNPLGRETSIQRVDWNDEGWLRLHDGSNVAKMTTPAPAAFNGSQKSAAFDIVDDFTSPTLNIRYMTPYQEPASSWIDYQGNGKLKIKGRNSFFSQYAPSILATRATSLNYEVETELEFHPDHYSETAGLGLYYDANNWFYVRLCLANDEQGIGLCGLHAKLGQKIDDRDNEVVVPGGKVKVRLSYRQGMVEVDYQLPEQEGWQPLGGPVNVDYLSDEGVNGEPGEIGGFTGLFNFMGAVDAHQHDSVATFNYYRVTSR | – | 134.7 mM | 241 µmol/min/mg | 1740 s⁻¹ | 12900 M⁻¹ s⁻¹ | 120.2 mM | 441 µmol/min/mg | 3170 s⁻¹ | 26400 M⁻¹ s⁻¹ | 84.2 mM | 488 µmol/min/mg | 3530 s⁻¹ | 41900 M⁻¹ s⁻¹ | 2.0 mM | 19.7 µmol/min/mg | 142 s⁻¹ | 1.5 mM | 0.4 µmol/min/mg | 2.8 s⁻¹ | 1900 M⁻¹ s⁻¹ |
